# Measured values from patent publication US20020193570A1 (EMD LEXIGEN RESEARCH CENTER, published 2002).
# T1: Fc-p40 fusion protein (human, UniProt P29460 23-328)
# T1 construct: mature; Expected to dimerize through the Fc; not shown: human IgG1 Fc (vector pdC-Fc-X)
# T1 sequence (looked up): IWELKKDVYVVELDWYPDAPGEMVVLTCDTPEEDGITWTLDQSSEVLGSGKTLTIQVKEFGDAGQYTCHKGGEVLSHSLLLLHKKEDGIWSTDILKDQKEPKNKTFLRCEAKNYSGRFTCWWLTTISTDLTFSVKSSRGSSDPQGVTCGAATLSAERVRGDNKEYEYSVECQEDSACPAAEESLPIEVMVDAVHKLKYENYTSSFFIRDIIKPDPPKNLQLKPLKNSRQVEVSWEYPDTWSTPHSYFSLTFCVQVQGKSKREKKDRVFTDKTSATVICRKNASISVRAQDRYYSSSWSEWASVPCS
# T2: free p40 subunit of human IL-12 (human, UniProt P29460 23-328)
# T2 construct: mature
# T2 sequence (looked up): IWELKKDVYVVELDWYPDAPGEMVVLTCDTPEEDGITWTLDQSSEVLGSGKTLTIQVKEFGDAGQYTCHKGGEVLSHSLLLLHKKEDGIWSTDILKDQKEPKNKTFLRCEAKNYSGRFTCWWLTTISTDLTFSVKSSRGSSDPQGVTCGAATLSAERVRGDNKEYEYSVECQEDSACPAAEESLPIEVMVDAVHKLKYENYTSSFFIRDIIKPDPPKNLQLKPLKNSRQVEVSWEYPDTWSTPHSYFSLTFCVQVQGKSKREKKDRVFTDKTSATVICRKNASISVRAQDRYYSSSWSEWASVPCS
# B1: free p35 subunit of human IL-12 (ligand, UniProt P29459 23-219, looked up)
# chain: RNLPVATPDPGMFPCLHHSQNLLRAVSNMLQKARQTLEFYPCTSEEIDHEDITKDKTSTVEACLPLELTKNESCLNSRETSFITNGSCLASRKTSFMMALCLSSIYEDLKMYQVEFKTMNAKLLMDPKRQIFLDQNMLAVIDELMQALNFNSETVPQKSSLEEPDFYKTKIKLCILLHAFRIRAVTIDRVMSYLNAS
# notes: mature
# B2: Fc-p35 fusion protein (Fc fusion, human, UniProt P29459 23-219, looked up)
# chain: RNLPVATPDPGMFPCLHHSQNLLRAVSNMLQKARQTLEFYPCTSEEIDHEDITKDKTSTVEACLPLELTKNESCLNSRETSFITNGSCLASRKTSFMMALCLSSIYEDLKMYQVEFKTMNAKLLMDPKRQIFLDQNMLAVIDELMQALNFNSETVPQKSSLEEPDFYKTKIKLCILLHAFRIRAVTIDRVMSYLNAS
# notes: mature; Expected to dimerize through the Fc; Not secreted unless paired with p40; not shown: human IgG1 Fc (vector pdC-Fc-X)
# Columns and labels:
# Fc-p40 fusion protein = target: T1, Fc-p40 fusion protein; assay: co-expression in 293 cells, protein A Sepharose precipitation of 35S-labelled supernatant, SDS-PAGE
# Procedure: (§1) After 16 hr, the medium containing the precipitate was removed and replaced with fresh medium. After 3 days, the supernatant was removed and analyzed for production of transfected gene expression by ELISA, biological determination of IL-12 activity, or immunoprecipitation and analysis on SDS gels of radioactively labeled proteins. For labeling, medium without methionine was used to replace the growth medium on the second day of culture and ³⁵S-methionine (100 μCi/ml) is added. After an additional 16 hr incubation, the media was harvested, clarified by centrifugation (5 min at 13,000 rpm in a table top microcentrifuge) and incubated with protein A Sepharose beads (10 μl of bead volume per ml of culture supernatant). After 1 hr at room temperature, the beads were washed by repeated centrifugation and resuspension in PBS buffer containing 1% NP-40. The final pellet was resuspended in SDS-containing gel buffer and boiled for 2 min. After removing the beads by centrifugation, the supernatant was divided into two aliquots. Reducing agent (5% 2-mercaptoethanol) was added to one sample and both are boiled for 5 min prior to loading on an SDS polyacrylamide gel. After electrophoresis the gel was exposed to X-ray film (autoradiography).
# (§2) An example of an analysis of the co-expression of various fusion proteins and individually expressed proteins, under reducing conditions, is shown in FIG. 2. […] The p40 subunit, on the other hand, was readily secreted when fused to Fc (lane 2). The p35 subunit was secreted when it could pair with the p40 subunit, either as an Fc-p35 fusion pairing with an Fc-p40 fusion protein (lane 3), the Fc-p35 pairing with free p40 (lane 4), or free p35 pairing with the Fc-p40 fusion protein (lane 5). In all cases of expression of a free subunit, together with a fusion protein, the free subunit assembles with the other subunit and forms a covalent, disulfide bond. […]
# [1] = target: T2, free p40 subunit of human IL-12; assay: as above
# Procedure: as §1, §2
binding result (Fc-p40 fusion protein),binding result [1],Binder
binds,,B1
binds,binds,B2
